In patent publication US20210147485A1, “PEPTIDE LIGANDS FOR BINDING TO INTEGRIN” (BicycleTx Limited, priority 2018, published 2021):
Starred links: 1 amine or outer side, 2 acyl side, 3 side chain; linkers in the order of their positions; H or OH if unused. Positions of bridges follow the written chain, without caps; N, C: chain ends. Non-standard residues stand in square brackets, D forms with d. No end group written: not given here. TBMB = c1c(C[*:1])cc(C[*:3])cc1C[*:2]; Dap(Me) = CNC[C@H](N)C(=O)O

How the values were obtained:
integrin αvβ3 [1] = molecular target: integrin αvβ3 (Homo sapiens, UniProt P05106+P06756); assay: Integrin αvβ3 competition binding assay (competition fluorescence polarisation, FITC-LC-GRGDSP ligand); details: relative to thioether linked Reference Example 1
Protocol: The peptide ligands of the examples and the reference examples were tested in the above mentioned assay.
The following reference peptide ligands having a TBMB or TATA scaffold with three thioether linkages to cysteine residues of the specified peptide sequences were prepared and evaluated for affinity to integrin αvβ3 as described in detail in our earlier application GB1800598.3 filed 15 Jan. 2018.

integrin αvβ3 [2] = assay: competition fluorescence polarisation, 5 nM FITC-LC-GRGDSP tracer; n1
integrin αvβ3 [3] = assay: competition fluorescence polarisation, 5 nM FITC-LC-GRGDSP tracer; n2

Ki (integrin αvβ3 [2]) | Ki (integrin αvβ3 [3]) | Molecule | binding affinity to integrin αvβ3 (in words) (integrin αvβ3 [1])
 |  | [Ac]A[Dap(Me)]ILRPN[Dap(Me)]DLDGR[Dap(Me)]A [BCY00009181] | larger drop in the measured affinity
> 18.6 µM | > 18.6 µM | Ac-A[Dap(Me)]ILRPN[Dap(Me)]DLDGR[Dap(Me)]A (linker 2-8-14 via TBMB) [BCY00009181] | 
